# T1: MBP-FPARRM-His (three RRM domains of FPA) (Arabidopsis thaliana, UniProt Q8LPQ9 1-307)
# T1 sequence: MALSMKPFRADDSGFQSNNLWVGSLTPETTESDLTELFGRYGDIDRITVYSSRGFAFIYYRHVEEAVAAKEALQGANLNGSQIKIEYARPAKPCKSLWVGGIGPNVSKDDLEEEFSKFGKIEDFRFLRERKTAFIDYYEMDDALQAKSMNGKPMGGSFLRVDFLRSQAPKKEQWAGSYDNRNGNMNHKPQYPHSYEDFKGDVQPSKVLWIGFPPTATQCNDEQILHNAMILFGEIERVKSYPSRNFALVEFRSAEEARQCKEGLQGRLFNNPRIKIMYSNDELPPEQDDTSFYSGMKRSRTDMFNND
# T2: MBP-FCARRM-His (RRM domains of FCA) (UniProt O04425 1-343)
# T2 sequence: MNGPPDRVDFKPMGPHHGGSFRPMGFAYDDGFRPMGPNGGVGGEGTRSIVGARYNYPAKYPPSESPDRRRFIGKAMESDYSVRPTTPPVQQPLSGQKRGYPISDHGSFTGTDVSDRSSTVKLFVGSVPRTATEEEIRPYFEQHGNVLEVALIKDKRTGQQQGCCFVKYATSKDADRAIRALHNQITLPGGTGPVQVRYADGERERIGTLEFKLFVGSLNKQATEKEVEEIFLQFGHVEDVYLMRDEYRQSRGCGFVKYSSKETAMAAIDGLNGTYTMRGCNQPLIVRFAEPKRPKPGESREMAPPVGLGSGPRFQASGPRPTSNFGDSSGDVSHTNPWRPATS
# B1: UC-rich probe (antisense of GA-rich; EMSA, biotin) (ssRNA)
# RNA: UUCUCUUCUUCUCUUCUUCUCUUC
# B2: GU-rich RNA (unlabeled; ITC and competitor) (ssRNA)
# RNA: GUUGUUUUGUUUGUUGUUUUGUUU
# B3: GA-rich RNA (unlabeled; ITC and competitor) (ssRNA)
# RNA: GAAGAGAAGAAGAGAAGAAGAGAA
# B4: GU-rich probe (EMSA, biotin) (ssRNA)
# RNA: GUUGUUUUGUUUGUUGUUUUGUUU
# Assays:
# [1] = molecular target: T1, MBP-FPARRM-His (three RRM domains of …); assay: EMSA; 2 nM probe, 2000 nM protein; EMSA: 10 mM HEPES-KOH pH 7.3, 20 mM KCl, 1 mM MgCl2, 1 mM DTT, 5% glycerol, 0.1 ug/uL tRNA, room temperature 30 min (protein eluted with 200 mM imidazole); ITC: 10 mM HEPES-KOH pH 8.0, 150 mM NaCl, 200 mM imidazole, 25 C; conditions: protein: recombinant; tags: MBP (pMAL-c2x), 6xHis; label: Biotin at both ends
# [2] = molecular target: T1, MBP-FPARRM-His (three RRM domains of …); assay: ITC; 25 C, 150 mM NaCl, pH 8.0; EMSA: 10 mM HEPES-KOH pH 7.3, 20 mM KCl, 1 mM MgCl2, 1 mM DTT, 5% glycerol, 0.1 ug/uL tRNA, room temperature 30 min (protein eluted with 200 mM imidazole); ITC: 10 mM HEPES-KOH pH 8.0, 150 mM NaCl, 200 mM imidazole, 25 C; conditions: protein: recombinant; tags: MBP (pMAL-c2x), 6xHis
# [3] = molecular target: T2, MBP-FCARRM-His (RRM domains of FCA); assay: competition; unlabeled GU-rich competes labeled GU-rich probe; EMSA: 10 mM HEPES-KOH pH 7.3, 20 mM KCl, 1 mM MgCl2, 1 mM DTT, 5% glycerol, 0.1 ug/uL tRNA, room temperature 30 min (protein eluted with 200 mM imidazole); ITC: 10 mM HEPES-KOH pH 8.0, 150 mM NaCl, 200 mM imidazole, 25 C; conditions: protein: recombinant; tags: MBP (pMAL-c2x), 6xHis
# [4] = molecular target: T2, MBP-FCARRM-His (RRM domains of FCA); assay: EMSA; 2 nM probe, 600 nM protein; EMSA: 10 mM HEPES-KOH pH 7.3, 20 mM KCl, 1 mM MgCl2, 1 mM DTT, 5% glycerol, 0.1 ug/uL tRNA, room temperature 30 min (protein eluted with 200 mM imidazole); ITC: 10 mM HEPES-KOH pH 8.0, 150 mM NaCl, 200 mM imidazole, 25 C; conditions: protein: recombinant; tags: MBP (pMAL-c2x), 6xHis; label: Biotin at both ends
# [5] = molecular target: T1, MBP-FPARRM-His (three RRM domains of …); assay: as above; conditions: protein: recombinant; tags: MBP (pMAL-c2x), 6xHis; label: Biotin at both ends
binder,measurement,setting,value
B1,binding result,[1],no binding
B2,binding result,[2],no binding
same,binding result,[3],binds
B3,Kd,[2],~20 µM
B4,binding result,[4],binds
same,binding result,[5],no binding

# Source: publication PMC12591160, “Polyadenylation Complex CFII Recognizes Downstream Cis‐element for Pre‐mRNA Polyadenylation Through Interaction with an RNA‐Binding Protein in Arabidopsis”
